EC50 and fold weaker binding than to EBOV GP data for one molecule are collected here from patent publication CN111138528A.

The target of this assay is BDBV GP (BDBV). Description: ELISA, GP coated at 1 μg/mL, 5A8 from 10 μg/mL in 1:3 dilutions.

B1: 单克隆抗体5A8 (antibody, V domains shown)
VH: EVQLLESGGGLVKPGGSLRLSCAASGFTFSDYYMNWIRQAPGKGLEWVSYISSSGKTIYYADSVKGRFTISRDNAKKSLYLQMNSLRAEDTAVYYCARDREIVISTTILLGSDHYAMDVWGQGTTVTVSS
VL: DIQMTQSPFTLSASVGDRVTITCRASQSINSYLNWYQQKPGKAPKLLIYSASSLQSGVPSRFSGSGSGTDFTLTISSLQPEDFAIYYCQQTYRTPYTFGQGTKVEIKT
B1: the EC50 stood at 0.126 µg/mL and the fold weaker binding than to EBOV GP is 10 fold.
